What follows are sequences tested against FGFR3 (UniProt P22607) (assay: phosphorylation enrichment, bacterial display (enrichment ratio); higher = better substrate or ligand; peptides without Tyr show the background).
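Wherever SH2 binding enrichment of the phosphorylated peptide, bacterial display is given: peptide library displayed on the E. coli surface as eCPX fusions, selected cells deep-sequenced, score is each peptide's frequency after selection divided by its frequency in the input.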
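Wherever phosphorylation enrichment, bacterial display is given: 11-residue human phosphosite peptides and single-mutation variants displayed on the E. coli surface, counted by deep sequencing, each peptide's frequency after selection divided by its frequency in the unselected input library; frequency after pTyr selection over input frequency; kinase dosed for 20-30% of maximal phosphorylation in three min.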

Chain of FGFR3 (P22607 whole entry, looked up, the tested form may be a part): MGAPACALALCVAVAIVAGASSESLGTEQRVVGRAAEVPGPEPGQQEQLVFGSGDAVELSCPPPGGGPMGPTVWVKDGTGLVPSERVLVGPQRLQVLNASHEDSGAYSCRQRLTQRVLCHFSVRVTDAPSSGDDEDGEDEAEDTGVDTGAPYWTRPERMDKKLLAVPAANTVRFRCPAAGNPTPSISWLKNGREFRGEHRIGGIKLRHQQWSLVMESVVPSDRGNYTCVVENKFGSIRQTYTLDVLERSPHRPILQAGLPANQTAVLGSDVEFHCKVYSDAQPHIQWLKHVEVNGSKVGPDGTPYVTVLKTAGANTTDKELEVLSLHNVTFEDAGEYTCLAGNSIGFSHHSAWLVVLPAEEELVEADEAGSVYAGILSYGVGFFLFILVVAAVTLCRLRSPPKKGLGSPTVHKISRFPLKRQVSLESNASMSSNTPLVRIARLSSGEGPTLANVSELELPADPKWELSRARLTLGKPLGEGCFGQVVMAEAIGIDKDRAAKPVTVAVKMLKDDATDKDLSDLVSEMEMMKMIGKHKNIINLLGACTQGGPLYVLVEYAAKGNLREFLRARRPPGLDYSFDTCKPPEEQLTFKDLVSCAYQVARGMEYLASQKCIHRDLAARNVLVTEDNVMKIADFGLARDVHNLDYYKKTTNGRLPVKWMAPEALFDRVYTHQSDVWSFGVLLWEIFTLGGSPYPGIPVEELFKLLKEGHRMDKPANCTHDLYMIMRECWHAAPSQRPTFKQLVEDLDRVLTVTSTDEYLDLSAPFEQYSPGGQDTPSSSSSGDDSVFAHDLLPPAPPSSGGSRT

Row | Sequence | phosphorylation enrichment
1 | RETLTYAQAQG [BRD1_Y33_R38G] | 0.149
2 | MSLRSYGSWEG [APC_Y96_R99W] | 0.671

What follows are sequences tested on AncSZ in the same assay as above.

Row | Sequence | phosphorylation enrichment
3 | AGQKDYDRLRP [RAC3_Y64_E62K] | 0.662
4 | EWKQKYEESQS [MYH6_Y1462] | 1.02
5 | RNEAFYDTFST [EFCAB3_Y372_S370A] | 1.32
6 | SVTCTYSPVLN [TP53_Y126_A129V] | 1.37
7 | CERLPYDANKW [FLT1_Y815_S818N] | 1.11
8 | NPQKSYFIRLF [WAS_Y83_YF] | 1.09
9 | RNGDRYFKGIV [DCX_Y64] | 0.709
10 | LDPDSYNVFEN [FOXC1_Y159_M161V] | 2.1
11 | LANNEYYFRVC | 1.6
12 | FASVEYQEALS [GALNS_Y461_A459V] | 1.01
13 | DSEIRYLSADS [TTF1_Y476] | 0.964
14 | VTVLDYEKIGK [SYT1_Y365_D366E] | 0.783
15 | PSVVAYPKRSQ [MARK3_Y432] | 0.834
16 | LPKEQYLCTKE [AFG3L2_Y614_Y616C] | 0.858
17 | CSPLLYRVIMS [OR8D4_Y132] | 1.22
18 | GGPAEYLRRAS [PKLR_Y38_G37E] | 0.954
19 | EPGNLYIAKVE [CNTN4_Y180_T176P] | 0.833
20 | TEQDPSNNIVR [MMUT_Y364_Y364S] | 0.824
21 | GSSKIYFLHAD [TLR5_Y108_P112A] | 0.862
22 | PGQRVYVVAER [SHH_Y316] | 0.883
23 | WQQQSYLDSGI [CTNNB1_Y30] | 0.75
24 | GKGGSYSQAAC [HLA-B_Y344] | 0.452
25 | RSSGPYGGGGQ [HNRNPA1_Y341] | 0.811
26 | FSEVRYVKEPY [HIPK4_Y170] | 0.9
27 | TGDFGYRTPGY [TNS2_Y668_A670T] | 0.524
28 | NESVDYRATFP [MET_Y1003] | 0.681
29 | LERDIYNREEF [HLA-DPB1_Y59_Y57D] | 1.19
30 | RETLTYAQAQG [BRD1_Y33_R38G] | 0.579
31 | MSLRSYGSWEG [APC_Y96_R99W] | 1.32

These sequences were tested against Grb2 SH2 (UniProt P62993) (assay: SH2 binding enrichment of the phosphorylated peptide, bacterial display (enrichment ratio); higher = better substrate or ligand; peptides without Tyr show the background).

Row | Sequence | SH2 binding enrichment
32 | AGQKDYDRLRP [RAC3_Y64_E62K] | 0.953
33 | EWKQKYEESQS [MYH6_Y1462] | 0.897
34 | RNEAFYDTFST [EFCAB3_Y372_S370A] | 1.05
35 | SVTCTYSPVLN [TP53_Y126_A129V] | 0.78
36 | CERLPYDANKW [FLT1_Y815_S818N] | 0.619
37 | RNGDRYFKGIV [DCX_Y64] | 0.995
38 | DSEIRYLSADS [TTF1_Y476] | 0.887
39 | VTVLDYEKIGK [SYT1_Y365_D366E] | 0.662
40 | CSPLLYRVIMS [OR8D4_Y132] | 0.825
41 | GSSKIYFLHAD [TLR5_Y108_P112A] | 1.12
42 | PGQRVYVVAER [SHH_Y316] | 0.879
43 | WQQQSYLDSGI [CTNNB1_Y30] | 0.726
44 | GKGGSYSQAAC [HLA-B_Y344] | 0.971
45 | FSEVRYVKEPY [HIPK4_Y170] | 0.908
46 | LERDIYNREEF [HLA-DPB1_Y59_Y57D] | 0.841

Other lines, results leading:

Row | SH2 binding enrichment | Sequence
47 | 1.2 | NPQKSYFIRLF [WAS_Y83_YF]
48 | 0.74 | LDPDSYNVFEN [FOXC1_Y159_M161V]
49 | 0.539 | LANNEYYFRVC
50 | 0.917 | FASVEYQEALS [GALNS_Y461_A459V]
51 | 0.554 | PSVVAYPKRSQ [MARK3_Y432]
52 | 0.883 | LPKEQYLCTKE [AFG3L2_Y614_Y616C]
53 | 0.743 | GGPAEYLRRAS [PKLR_Y38_G37E]
54 | 0.788 | EPGNLYIAKVE [CNTN4_Y180_T176P]
55 | 0.969 | TEQDPSNNIVR [MMUT_Y364_Y364S]
56 | 0.961 | RSSGPYGGGGQ [HNRNPA1_Y341]
57 | 0.762 | TGDFGYRTPGY [TNS2_Y668_A670T]
58 | 0.748 | NESVDYRATFP [MET_Y1003]
59 | 0.45 | MSLRSYGSWEG [APC_Y96_R99W]

What follows are sequences tested against SHP2-C SH2 in the same assay as above.

Row | Sequence | SH2 binding enrichment
60 | AGQKDYDRLRP [RAC3_Y64_E62K] | 0.688
61 | EWKQKYEESQS [MYH6_Y1462] | 0.672
62 | RNEAFYDTFST [EFCAB3_Y372_S370A] | 0.842
63 | SVTCTYSPVLN [TP53_Y126_A129V] | 0.683
64 | CERLPYDANKW [FLT1_Y815_S818N] | 0.754
65 | RNGDRYFKGIV [DCX_Y64] | 0.714
66 | DSEIRYLSADS [TTF1_Y476] | 0.914
67 | VTVLDYEKIGK [SYT1_Y365_D366E] | 0.649
68 | CSPLLYRVIMS [OR8D4_Y132] | 0.571
69 | GSSKIYFLHAD [TLR5_Y108_P112A] | 1.19
70 | PGQRVYVVAER [SHH_Y316] | 0.586
71 | WQQQSYLDSGI [CTNNB1_Y30] | 0.649
72 | GKGGSYSQAAC [HLA-B_Y344] | 0.881
73 | FSEVRYVKEPY [HIPK4_Y170] | 0.52
74 | LERDIYNREEF [HLA-DPB1_Y59_Y57D] | 1.07

Now from value to sequence:

Row | SH2 binding enrichment | Sequence
75 | 0.945 | NPQKSYFIRLF [WAS_Y83_YF]
76 | 0.752 | LDPDSYNVFEN [FOXC1_Y159_M161V]
77 | 0.562 | LANNEYYFRVC
78 | 0.723 | FASVEYQEALS [GALNS_Y461_A459V]
79 | 0.476 | PSVVAYPKRSQ [MARK3_Y432]
80 | 0.533 | LPKEQYLCTKE [AFG3L2_Y614_Y616C]
81 | 0.647 | GGPAEYLRRAS [PKLR_Y38_G37E]
82 | 0.553 | EPGNLYIAKVE [CNTN4_Y180_T176P]
83 | 0.863 | TEQDPSNNIVR [MMUT_Y364_Y364S]
84 | 0.623 | RSSGPYGGGGQ [HNRNPA1_Y341]
85 | 0.889 | TGDFGYRTPGY [TNS2_Y668_A670T]
86 | 0.693 | NESVDYRATFP [MET_Y1003]
87 | 0.412 | MSLRSYGSWEG [APC_Y96_R99W]

These sequences were tested against c-Src SH2 in the same assay as above.

Row | Sequence | SH2 binding enrichment
88 | AGQKDYDRLRP [RAC3_Y64_E62K] | 0.63
89 | EWKQKYEESQS [MYH6_Y1462] | 0.545
90 | RNEAFYDTFST [EFCAB3_Y372_S370A] | 0.801
91 | SVTCTYSPVLN [TP53_Y126_A129V] | 0.538
92 | CERLPYDANKW [FLT1_Y815_S818N] | 0.492
93 | RNGDRYFKGIV [DCX_Y64] | 0.548
94 | DSEIRYLSADS [TTF1_Y476] | 0.633
95 | VTVLDYEKIGK [SYT1_Y365_D366E] | 0.89
96 | CSPLLYRVIMS [OR8D4_Y132] | 0.393
97 | GSSKIYFLHAD [TLR5_Y108_P112A] | 0.833
98 | PGQRVYVVAER [SHH_Y316] | 0.665
99 | WQQQSYLDSGI [CTNNB1_Y30] | 0.571
100 | GKGGSYSQAAC [HLA-B_Y344] | 0.746
101 | FSEVRYVKEPY [HIPK4_Y170] | 0.624
102 | LERDIYNREEF [HLA-DPB1_Y59_Y57D] | 0.678

Second part, the sequence after the results:

Row | SH2 binding enrichment | Sequence
103 | 0.701 | NPQKSYFIRLF [WAS_Y83_YF]
104 | 1.59 | LDPDSYNVFEN [FOXC1_Y159_M161V]
105 | 0.42 | LANNEYYFRVC
106 | 0.576 | FASVEYQEALS [GALNS_Y461_A459V]
107 | 0.367 | PSVVAYPKRSQ [MARK3_Y432]
108 | 0.584 | LPKEQYLCTKE [AFG3L2_Y614_Y616C]
109 | 0.355 | GGPAEYLRRAS [PKLR_Y38_G37E]
110 | 0.405 | EPGNLYIAKVE [CNTN4_Y180_T176P]
111 | 0.5 | TEQDPSNNIVR [MMUT_Y364_Y364S]
112 | 0.606 | RSSGPYGGGGQ [HNRNPA1_Y341]
113 | 0.466 | TGDFGYRTPGY [TNS2_Y668_A670T]
114 | 0.433 | NESVDYRATFP [MET_Y1003]
115 | 0.282 | MSLRSYGSWEG [APC_Y96_R99W]

From the supplement of paper PMC10065799, “High-throughput profiling of sequence recognition by tyrosine kinases and SH2 domains using bacterial peptide display” (eLife, 2023)
